One molecule from paper PMC12630357 (The Journal of Biological Chemistry, 2025) can be followed below.

The target in the assay is T1, 6xHis-CotV (Bacillus subtilis 168, UniProt Q08309 1-128).
T1 construct: CotV, spore coat (crust) protein of Bacillus subtilis strain 168; native ORF printed as 129 residues; residues 1-125 resolved in the model; Forms a helical filament; the number of copies is not fixed; also called 6xHis-tagged CotV; CotV1; source: E. coli BL21(DE3), coexpressed with CotW from pET-DUET, Ni-NTA purified as the CotVW complex; not shown: 6xHis (within an N-terminal extension of 14 …)
T1 sequence (looked up): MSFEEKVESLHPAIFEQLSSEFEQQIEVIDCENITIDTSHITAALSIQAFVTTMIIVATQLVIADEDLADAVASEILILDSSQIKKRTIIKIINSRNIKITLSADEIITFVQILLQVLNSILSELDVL
The assay is described as follows: cryo-EM structure; helical reconstruction of 6xHis-tagged CotVW filaments, 3.32 Å; twist 153.09°, rise 9.52 Å, one CotV-CotW heterodimer per asymmetric unit. Particulars: both partners purified.

B1: CotW (natural protein, Bacillus subtilis 168, UniProt Q08310 1-105, looked up)
chain: MSDNDKFKEELAKLPEVDPMTKMLVQNIFSKHGVTKDKMKKVSDEEKEMLLNLVKDLQAKSQALIENQKKKKEEAAAQEQKNTKPLSRREQLIEQIRQRRKNDNN
notes: CotW, spore coat (crust) protein of Bacillus subtilis strain 168; native ORF 105 residues; residues 18-98 resolved in the model; also called CotW1; CotW monomer; source: E. coli BL21(DE3), coexpressed with 6xHis-CotV from pET-DUET, co-purified on Ni-NTA as the CotVW complex; not shown: single added tyrosine, C-terminal, kept
Usually stoichiometry N stands for a count of units in the complex or per binding partner. As to B1, the “stoichiometry N” value was 1.
